For the data set, the system named is T1, YhaJ (Escherichia coli EHEC O157:H7? EDL933 (amplified from TUV93-0 genomic DNA)), ORF:62819c23.
T1 sequence: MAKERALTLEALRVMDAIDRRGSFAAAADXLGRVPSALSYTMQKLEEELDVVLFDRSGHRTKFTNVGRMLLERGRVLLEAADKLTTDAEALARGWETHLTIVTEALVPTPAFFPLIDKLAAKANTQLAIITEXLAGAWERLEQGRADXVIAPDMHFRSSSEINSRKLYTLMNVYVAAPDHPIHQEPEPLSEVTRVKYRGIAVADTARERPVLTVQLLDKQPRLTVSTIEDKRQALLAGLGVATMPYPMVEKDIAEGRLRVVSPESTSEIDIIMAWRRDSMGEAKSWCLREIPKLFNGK
Description: EMSA. To be noted: EMSA: Roche DIG Gel Shift Kit 2nd Gen (buffer, salt and pH not stated), 30 min at 30 C, YhaJ 0-1 uM, DIG probe diluted to 0.4 ng/ul, 6% DNA retardation gel. Background: A gel shift assay detects complexes by their altered migration in electrophoresis.

Take “TCGCTCAATATTTTGTAGGGCTTATTATTTTTTTCCGAGCCGCATCAAGGCGATATGCGGTCTACGTTTTTGCAGGCGAGTTATTAGAATAAAGAAATGATACGCGCGAGGTCAGAGAAAATCTTCACAATCAAGACTTTGAAATAACGGAGATGGATAAGAATTTTCTACTAAATTAATCGCAAGAGAATATTCACTCTCTATTTGCGGCAGATCACAAAAAAAAGGTGCACATTTGTGCACCCAAGGATGAAAGCTGACAGCAATGTCAGCCGCAGACCACTTTAATGGCCAGTCCGC (double strand) [pyhaO promoter probe]”: the binding result is given as “binds”.

As to “CCTGCTGTAGAACTGCAATTTGCTCTATAAGCTGAATGTATGGACTTGTTGTATGTGAATTATTTTCCATATTCATAATAAATAATCTCCGCATGCTTTAATATTTTAAGCTATTAGCGACCTTATCAGGAAGGACCAACAATTAATCAAATGATATAAATTATGTGAGATAACGTTTATCTATCAAATTAGGACACATCTATTTCATCAAACAACCACCTTAAAATG (double strand) [LEE1 P2 promoter probe]”, the binding result is given as “no binding”.
